Results from article PMC3276087 (Journal of Experimental Botany, 2011).

Molecular target: bovine testes calmodulin (bovine, UniProt P62157 1-149)
Assay: SPR

| Binder | Kd | koff | kon |
| --- | --- | --- | --- |
| His-tagged ACA8 N-terminus, wild type (6His-1M-I116) (domain or fragment) MTSLLKSSPGRRRGGDVESGKSEHADSDSDTFYIPSKNASIERLQQWRKAALVLNASRRFRYTLDLKKEQETREMRQKIRSHAHALLAANRFMDMGRESGVEKTTGPATPAGDFGI | 19.3 nM | 0.00244 s⁻¹ | 127000 M⁻¹ s⁻¹ |
| His-tagged ACA8 N-terminus S57D (6His-1M-I116) (domain or fragment) MTSLLKSSPGRRRGGDVESGKSEHADSDSDTFYIPSKNASIERLQQWRKAALVLNADRRFRYTLDLKKEQETREMRQKIRSHAHALLAANRFMDMGRESGVEKTTGPATPAGDFGI | 165 nM | 0.0255 s⁻¹ | 154000 M⁻¹ s⁻¹ |
| His-tagged ACA8 N-terminus S27D (6His-1M-I116) (domain or fragment) MTSLLKSSPGRRRGGDVESGKSEHADDDSDTFYIPSKNASIERLQQWRKAALVLNASRRFRYTLDLKKEQETREMRQKIRSHAHALLAANRFMDMGRESGVEKTTGPATPAGDFGI | 26.5 nM | 0.0052 s⁻¹ | 196000 M⁻¹ s⁻¹ |
| His-tagged ACA8 N-terminus S29D (6His-1M-I116) (domain or fragment) MTSLLKSSPGRRRGGDVESGKSEHADSDDDTFYIPSKNASIERLQQWRKAALVLNASRRFRYTLDLKKEQETREMRQKIRSHAHALLAANRFMDMGRESGVEKTTGPATPAGDFGI | 22.3 nM | 0.00382 s⁻¹ | 171000 M⁻¹ s⁻¹ |
| His-tagged ACA8 N-terminus S22D (6His-1M-I116) (domain or fragment) MTSLLKSSPGRRRGGDVESGKDEHADSDSDTFYIPSKNASIERLQQWRKAALVLNASRRFRYTLDLKKEQETREMRQKIRSHAHALLAANRFMDMGRESGVEKTTGPATPAGDFGI | 23.9 nM | 0.00139 s⁻¹ | 58000 M⁻¹ s⁻¹ |

Stronger by Kd, values ahead:

| Kd | koff | kon | Binder |
| --- | --- | --- | --- |
| 14.5 nM | 0.00325 s⁻¹ | 224000 M⁻¹ s⁻¹ | His-tagged ACA8 N-terminus S19D (6His-1M-I116) (domain or fragment) MTSLLKSSPGRRRGGDVEDGKSEHADSDSDTFYIPSKNASIERLQQWRKAALVLNASRRFRYTLDLKKEQETREMRQKIRSHAHALLAANRFMDMGRESGVEKTTGPATPAGDFGI |
| 11.3 nM | 0.00137 s⁻¹ | 121000 M⁻¹ s⁻¹ | His-tagged ACA8 N-terminus S99D (6His-1M-I116) (domain or fragment) MTSLLKSSPGRRRGGDVESGKSEHADSDSDTFYIPSKNASIERLQQWRKAALVLNASRRFRYTLDLKKEQETREMRQKIRSHAHALLAANRFMDMGREDGVEKTTGPATPAGDFGI |
